Experimental data published in the supplement of paper PMC10126150.
± gives the standard deviation of the averaged measurements.

Test system: ATP
Assay: switch fluorescence ratio, 500 uM ATP over buffer (Cy3 cluster intensity, sum of 5 cycles each) (fold (ratio)); higher = stronger signal-on switching upon ATP binding; sequences stand for … in TCGTCGGCAGCGTCAGATGTGTATAAGAGACAGTTTTTTTTTTTTTTTTTTTTTTTTT…TC
Settings: aptamer strand: ATP DNA aptamer (quencher-CACCTGGGGGAGTATTGCGGAGGAAGG + anchor), 100 nM annealed; ATP concentration: 500 uM
Procedure, shortened: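 The quencher-labelled ATP aptamer, at 100 nM, was annealed to Cy3-labelled switching-strand clusters on a modified Illumina MiSeq flow-cell. The clusters were imaged in selection buffer, then after 15 min with 500 uM ATP at 22 °C, and this buffer/ATP cycle ran five times with NaOH stripping and re-annealing between runs. Per-cluster fluorescence ratios, summed target-cycle over summed buffer-cycle Cy3 intensity, were averaged per switch-domain sequence. Clusters outside 100-1000 RFU were excluded.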
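Note: ATP exposure 15 min at 22 °C before imaging.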

## CGGGGGGGGA
  switch fluorescence ratio: 1.02 ± 0.035

## TATCCTGGAC
  switch fluorescence ratio: 1.05 ± 0.045

## TTTTCGTTCG
  switch fluorescence ratio: 1.01 ± 0.059

## TAGTTTTAGA
  switch fluorescence ratio: 0.98478 ± 9.2e-05

## TTCGTATTTT
  switch fluorescence ratio: 0.992 ± 0.026

## TTCCCCATGG
  switch fluorescence ratio: 1.43 ± 0.6

## TAATTTTATG
  switch fluorescence ratio: 0.998 ± 0.025

## AAGGCCTTGA
  switch fluorescence ratio: 0.988 ± 0.049

## ATACCTTA
  switch fluorescence ratio: 1.02 ± 0.038

## CCAGTTACGG
  switch fluorescence ratio: 1.032 ± 0.01

## TTACGCCGTT
  switch fluorescence ratio: 0.9446 ± 0.0049

## GATAGGGGGG
  switch fluorescence ratio: 1 ± 0.03

## GGTGCGGGAT
  switch fluorescence ratio: 0.992 ± 0.043

## GTGTGCTGCA
  switch fluorescence ratio: 1.03 ± 0.092

## TGCGAACACT
  switch fluorescence ratio: 1.002 ± 0.0064

## GAGGGCATCA
  switch fluorescence ratio: 0.99 ± 0.015

## ATGTAGAGGG
  switch fluorescence ratio: 1.01 ± 0.02

## TTTCACAGCG
  switch fluorescence ratio: 1.01 ± 0.011

## GCCGCGCGCT
  switch fluorescence ratio: 1 ± 0.082

## TGGAGGGGTA
  switch fluorescence ratio: 1.05 ± 0.053

## ATGTTCGGCC
  switch fluorescence ratio: 1.012 ± 0.01

## TTTACGGATA
  switch fluorescence ratio: 1.349 ± 0.013

## TGGGTAAGGA
  switch fluorescence ratio: 1 ± 0.026

## GTGGATGTAC
  switch fluorescence ratio: 1.06 ± 0.05

## GACGTGCAGG
  switch fluorescence ratio: 1.07 ± 0.11

## GTTATTGCTC
  switch fluorescence ratio: 1.12 ± 0.19

## AATGGGGATC
  switch fluorescence ratio: 0.984 ± 0.062

## TAGAATGTTT
  switch fluorescence ratio: 1.02 ± 0.012

## ATTACTTTGC
  switch fluorescence ratio: 1.05 ± 0.021

## CTTGGGTAGG
  switch fluorescence ratio: 1.01 ± 0.035

## TGAGTAGAGG
  switch fluorescence ratio: 1 ± 0.02

## CGATCCCATT
  switch fluorescence ratio: 1.05 ± 0.037

## GTGGCGTAGA
  switch fluorescence ratio: 1.02 ± 0.012

## TTGCTCTTTT
  switch fluorescence ratio: 1.019 ± 0.0013

## TATTTTATGG
  switch fluorescence ratio: 0.998 ± 0.025

## GGGGGGTAGC
  switch fluorescence ratio: 0.9761 ± 0.0061

## ACGTTTTTGT
  switch fluorescence ratio: 1.027 ± 0.0097

## GGATAATGGC
  switch fluorescence ratio: 0.94 ± 0.059

## GTCGCGGGGG
  switch fluorescence ratio: 1.04 ± 0.071

## AATCATAGTT
  switch fluorescence ratio: 1 ± 0.014

## CTTGATATTT
  switch fluorescence ratio: 0.993 ± 0.015

## CCTGTTTTAT
  switch fluorescence ratio: 0.9953 ± 0.0051

## TTCATGCATC
  switch fluorescence ratio: 1.83 ± 1.2

## GCGCGGTGTT
  switch fluorescence ratio: 0.988 ± 0.026

## TTAAGTTTTT
  switch fluorescence ratio: 0.98835 ± 0.00077

## ACGGTGGTCA
  switch fluorescence ratio: 1.023 ± 0.0092

## GACAGTAGGG
  switch fluorescence ratio: 1 ± 0.043

## CCGGTTAGAG
  switch fluorescence ratio: 1.05 ± 0.014

## TAATTCGCGA
  switch fluorescence ratio: 1.15 ± 0.034

## GGGGAGTGCG
  switch fluorescence ratio: 0.969 ± 0.01

## AGGGGGGATT
  switch fluorescence ratio: 1 ± 0.019

## AGTTACCA
  switch fluorescence ratio: 1.054 ± 0.0038

## TCAGAGGAG
  switch fluorescence ratio: 1.01 ± 0.025

## GTTGTTGTTG
  switch fluorescence ratio: 0.996 ± 0.045

## GTCCTGGGGC
  switch fluorescence ratio: 0.9947 ± 0.0014

## GTTGAGGGGT
  switch fluorescence ratio: 0.993 ± 0.027

## CCGGGAGCGC
  switch fluorescence ratio: 1.98 ± 0.83

## CGTATTAGCG
  switch fluorescence ratio: 0.952 ± 0.025

## GACGGTTTAG
  switch fluorescence ratio: 1.04 ± 0.058

## TTCCTTGGTT
  switch fluorescence ratio: 1.01 ± 0.012

## GAGTTACAGG
  switch fluorescence ratio: 1.04 ± 0.022

## CGGGGTTCGC
  switch fluorescence ratio: 1.95 ± 1.3

## GGCAATATAG
  switch fluorescence ratio: 1.141 ± 0.006

## TGCTGACGGT
  switch fluorescence ratio: 0.993 ± 0.029

## TTGTATGTGT
  switch fluorescence ratio: 0.983 ± 0.032

## GATAGAAGGA
  switch fluorescence ratio: 1.02 ± 0.033

## CAGCGAGGTC
  switch fluorescence ratio: 1.05 ± 0.012

## TTTCTGGAGA
  switch fluorescence ratio: 1.05 ± 0.05

## AAAGGTCGAC
  switch fluorescence ratio: 0.973 ± 0.021

## CGCTGGGGGT
  switch fluorescence ratio: 1.16 ± 0.2

## ACTTGCTTAC
  switch fluorescence ratio: 2 ± 0.022

## ATTTGATGGG
  switch fluorescence ratio: 0.977 ± 0.03

## TGTTGTGTTA
  switch fluorescence ratio: 0.9965 ± 5.6e-06

## CTAACGCCTT
  switch fluorescence ratio: 1.13 ± 0.042

## AGGTTTATTG
  switch fluorescence ratio: 0.993 ± 0.0097

## GCCGTGGGAG
  switch fluorescence ratio: 0.986 ± 0.052

## TCCCGGGTCT
  switch fluorescence ratio: 0.992 ± 0.029

## CGGCGCTAGG
  switch fluorescence ratio: 1.05 ± 0.045

## GCTAAGTATG
  switch fluorescence ratio: 1.04 ± 0.043

## CAGGGAAGCG
  switch fluorescence ratio: 0.991 ± 0.018

## GATTAGGGTG
  switch fluorescence ratio: 1.01 ± 0.026

## TTGTAGGGAT
  switch fluorescence ratio: 1.43 ± 0.77

## AGCTTGTCAA
  switch fluorescence ratio: 0.9774 ± 0.0067

## GCTCGTTATA
  switch fluorescence ratio: 1.02 ± 0.019

## TTTTGCCTTC
  switch fluorescence ratio: 1.09 ± 0.027

## CCGGGGGGTA
  switch fluorescence ratio: 1.37 ± 0.017

## TACCCGCTGT
  switch fluorescence ratio: 1.56 ± 0.39

## AAATTGGGCA
  switch fluorescence ratio: 0.997 ± 0.029

## TGCTTTAAGG
  switch fluorescence ratio: 1.02 ± 0.04

## AAATGCAGGG
  switch fluorescence ratio: 1.01 ± 0.055

## CGTCATCGGG
  switch fluorescence ratio: 0.973 ± 0.029

## AAGGGAGAGG
  switch fluorescence ratio: 0.985 ± 0.013

## TTGGCTGTTT
  switch fluorescence ratio: 1.016 ± 0.01

## GGTGGGGGCC
  switch fluorescence ratio: 1.03 ± 0.011

## GGAAAGGGAG
  switch fluorescence ratio: 0.97 ± 0.02

## CGATGGGAAA
  switch fluorescence ratio: 1.01 ± 0.014

## AACCTATTCT
  switch fluorescence ratio: 1.15 ± 0.17

## TTAGTCGATA
  switch fluorescence ratio: 0.9767 ± 0.0021

## TGGGTAGGTC
  switch fluorescence ratio: 1.014 ± 0.0014

## GTTATTTTGA
  switch fluorescence ratio: 1.01 ± 0.017

## TTATTGGTCG
  switch fluorescence ratio: 1.02 ± 0.061

## ACGTATCTCT
  switch fluorescence ratio: 1.17 ± 0.11

## AAGGAAGCTT
  switch fluorescence ratio: 1.02 ± 0.1

## TTTACTGTTT
  switch fluorescence ratio: 1.01 ± 0.082

## GTGGGTTGGC
  switch fluorescence ratio: 1.03 ± 0.043

## CGGGATAATC
  switch fluorescence ratio: 1.07 ± 0.052

## CGGGGGTTGG
  switch fluorescence ratio: 0.999 ± 0.025

## TCCCGGGGGA
  switch fluorescence ratio: 2 ± 1.2

## GCGATTATGG
  switch fluorescence ratio: 0.977 ± 0.019

## GGGGGGTGGT
  switch fluorescence ratio: 0.978 ± 0.025

## GCTGGGCACA
  switch fluorescence ratio: 0.967 ± 0.03

## CCGGGGGACG
  switch fluorescence ratio: 1.06 ± 0.14

## GGTAGCAGTT
  switch fluorescence ratio: 1 ± 0.026

## CCCGAGCCTC
  switch fluorescence ratio: 1.36 ± 0.1

## TAATGGGATG
  switch fluorescence ratio: 0.974 ± 0.015

## TCATTGAGCG
  switch fluorescence ratio: 0.981 ± 0.04

## ATTTAGGCAT
  switch fluorescence ratio: 0.987 ± 0.042

## ATATTGTGGG
  switch fluorescence ratio: 0.987 ± 0.023

## GGAGCGAGAG
  switch fluorescence ratio: 3.37 ± 0.28

## ATGGTCTGTT
  switch fluorescence ratio: 1 ± 0.036

## TGTTTCTGGG
  switch fluorescence ratio: 0.999 ± 0.05

## GGGATTAGCG
  switch fluorescence ratio: 0.957 ± 0.037

## AGCTGGGGTG
  switch fluorescence ratio: 1.03 ± 0.06

## GCTGTGTTGG
  switch fluorescence ratio: 1.02 ± 0.013

## AGATTTGTGG
  switch fluorescence ratio: 0.9917 ± 0.0033

## ATTATCTGCG
  switch fluorescence ratio: 1 ± 0.011

## CGTATAAGTT
  switch fluorescence ratio: 0.937 ± 0.018

## TTGTATTGCC
  switch fluorescence ratio: 1.02 ± 0.018

## CCGGGGACCC
  switch fluorescence ratio: 1.13 ± 0.08

## TGGAAAAGCG
  switch fluorescence ratio: 0.976 ± 0.012

## AGAAAGGTCT
  switch fluorescence ratio: 1.026 ± 0.0085

## CGCGTTCCGT
  switch fluorescence ratio: 1.03 ± 0.019

## GTGTTTTCAG
  switch fluorescence ratio: 0.988 ± 0.03

## AGGGTGAGAG
  switch fluorescence ratio: 0.965 ± 0.025

## CGCAGTAGTG
  switch fluorescence ratio: 1.16 ± 0.032

## TAGGGTGAGC
  switch fluorescence ratio: 1.02 ± 0.019

## ATGGGAAGGG
  switch fluorescence ratio: 1.01 ± 0.015

## ATATTAAAAT
  switch fluorescence ratio: 1.02 ± 0.021

## CGCCGGGGGA
  switch fluorescence ratio: 1.05 ± 0.036

## GGGCGCACGG
  switch fluorescence ratio: 0.992 ± 0.039

## TTTTTCGGAT
  switch fluorescence ratio: 1.05 ± 0.14

## TTAACGGGAA
  switch fluorescence ratio: 1 ± 0.024

## TCCCCGTTTC
  switch fluorescence ratio: 1.65 ± 0.75

## GCTGATTTCG
  switch fluorescence ratio: 1 ± 0.029

## GGACGAATGG
  switch fluorescence ratio: 1.02 ± 0.013

## TTTGGGTCGG
  switch fluorescence ratio: 0.993 ± 0.018

## GCATTTTCAG
  switch fluorescence ratio: 0.989 ± 0.021

## TGTAGTGAA
  switch fluorescence ratio: 1.1 ± 0.16

## CATAACGGTT
  switch fluorescence ratio: 0.98 ± 0.025

## TTTATAACCT
  switch fluorescence ratio: 1.7 ± 0.61

## GGTTTTTTGA
  switch fluorescence ratio: 1.01 ± 0.038

## TTCATGGGT
  switch fluorescence ratio: 1.017 ± 0.0054

## AGTTTACGAT
  switch fluorescence ratio: 1.037 ± 0.0099

## CTGTGGGGGC
  switch fluorescence ratio: 1.01 ± 0.016

## CGGGTGCAAA
  switch fluorescence ratio: 1.08 ± 0.016

## GTGAGTTTGT
  switch fluorescence ratio: 1.01 ± 0.027

## CGGAAAAAAG
  switch fluorescence ratio: 1.018 ± 0.007
